The values below come from publication PMC9891255.

Data set [1] concerns the target T1, UPF2S (Homo sapiens, UniProt Q9HAU5 761-1227). The data set is described as follows: analytical SEC.
Data set [2] deals with T1, UPF2S. The data set is described as follows: fluorescence anisotropy. Background: Fluorescence polarisation rises when a labelled molecule tumbles more slowly, as on binding a larger partner.
The next data set deals with UPF2-U1BD (Homo sapiens, UniProt Q9HAU5 1105-1227). The data set is described as follows: fluorescence anisotropy.
UPF2-U1BD, sequence (Q9HAU5 1105-1227): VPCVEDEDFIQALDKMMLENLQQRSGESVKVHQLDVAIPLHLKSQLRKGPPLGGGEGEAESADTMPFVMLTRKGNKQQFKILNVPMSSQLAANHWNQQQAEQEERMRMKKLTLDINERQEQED

T1 sequence (Q9HAU5 761-1227): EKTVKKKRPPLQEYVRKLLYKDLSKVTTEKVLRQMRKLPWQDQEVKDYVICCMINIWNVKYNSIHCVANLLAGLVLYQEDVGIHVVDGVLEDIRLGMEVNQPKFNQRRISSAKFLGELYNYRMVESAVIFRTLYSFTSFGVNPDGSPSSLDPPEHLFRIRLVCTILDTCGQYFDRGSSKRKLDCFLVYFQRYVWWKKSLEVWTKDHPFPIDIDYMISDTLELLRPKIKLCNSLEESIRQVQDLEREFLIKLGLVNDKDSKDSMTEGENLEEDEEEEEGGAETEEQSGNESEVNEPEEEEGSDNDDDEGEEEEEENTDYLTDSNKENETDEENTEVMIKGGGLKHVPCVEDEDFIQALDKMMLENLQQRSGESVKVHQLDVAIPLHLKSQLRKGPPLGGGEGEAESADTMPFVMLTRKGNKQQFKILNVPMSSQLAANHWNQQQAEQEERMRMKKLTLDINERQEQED

B1: U15 RNA (ssRNA)
RNA: UUUUUUUUUUUUUUU
With B1, the binding result with UPF2S [1] was “no binding”.

B2: U12 RNA (ssRNA)
RNA: UUUUUUUUUUUU
What is called Kd is a measure of binding affinity in units of concentration. The molecule B2 displayed a Kd with UPF2S [2] of around 600 nM. In addition, in the data set with UPF2-U1BD, the binding result is on record as “no binding”.
